From article PMC7110113, “Termination of non‐coding transcription in yeast relies on both an RNA Pol II CTD interaction domain and a CTD‐mimicking region in Sen1” (The EMBO Journal, 2020)
Substitutions are numbered along the chain they refer to. Numbers in names are those of the source. Each block holds one molecule with its values, some of them ahead of it. Ends that are not written are not given here. FAM = 5,6-carboxyfluorescein

Legend:
[1] = molecular target: Sen1 NIM peptide (Sen1 aa 2,052-2,063) (S. cerevisiae) (UniProt Q00416); assay: fluorescence polarisation; fluorescence anisotropy, equilibrium binding of Nrd1 CID variants to FAM-labelled NIM peptides; 10°C, 50 mM Na2HPO4, 100 mM NaCl, pH 8; 1:1 model with non-specific binding (DynaFit)
[2] = molecular target: Trf4 NIM peptide (S. cerevisiae); assay: as above
Nrd1 CID [3] = molecular target: T1, Nrd1 CID (S. cerevisiae, UniProt P53617 1-153); assay: NMR titration; [1H,15N] HSQC of Nrd1 CID titrated with NIM peptide, chemical shift perturbations; 20°C, 50 mM Na2HPO4, 100 mM NaCl, pH 8; conditions: both partners purified
T1 construct: The NMR sample was uniformly 15N,13C-labelled; also called wild-type Nrd1 CID; source: recombinant, purified as described previously (Kubicek et al, 2012)
T1 sequence (looked up): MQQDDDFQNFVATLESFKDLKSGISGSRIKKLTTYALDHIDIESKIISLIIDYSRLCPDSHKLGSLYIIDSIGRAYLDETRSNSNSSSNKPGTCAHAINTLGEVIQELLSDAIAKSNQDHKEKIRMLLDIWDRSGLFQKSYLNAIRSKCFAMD

[4] = molecular target: Trf4 NIM peptide, FAM-labelled (S. cerevisiae); assay: fluorescence polarisation; fluorescence anisotropy; N-terminally FAM-labelled NIM peptides with purified Nrd1 CID versions; 10°C, 50 mM Na2HPO4, 100 mM NaCl, pH 8; 1:1 model with non-specific binding (DynaFit)
Nrd1 CID S25D = molecular target: T2, Nrd1 CID S25D (S. cerevisiae, UniProt P53617 1-153, S25D); assay: as above; conditions: both partners purified
T2 construct: Nrd1 CID, S. cerevisiae; source: recombinant, purified as described previously (Kubicek et al, 2012)
T2 sequence (looked up): T1 sequence (looked up) with S25D

Nrd1 CID [5] = molecular target: T1, Nrd1 CID; assay: as above; conditions: both partners purified

Kd [1]: 76.1 µM | Kd [2]: 53.9 µM
Molecule: Nrd1 CID S25D (from UniProt P53617 1-153) (domain or fragment)

binding result (Nrd1 CID [3]): binds
B1: Sen1 NIM peptide (NMR) (peptide, UniProt Q00416 2052-2063, looked up)
peptide: DDDEDDYTPSIS
notes: The text prints D2052-D2053-D2054-E2055-D2056-D2057, Y2058, T2059, P2060, S2061 and I2062; it is surmised to be unlabelled; source: synthetic peptide

Kd [2]: 4.5 µM
B2: Nrd1 CID I130A (domain or fragment)
chain: T1 sequence (looked up) with I130A

Kd [2]: 1.4 µM
B3: Nrd1 CID R133A (domain or fragment)
chain: T1 sequence (looked up) with R133A

Kd [2]: 6.1 µM
B4: Nrd1 CID I130N (domain or fragment)
chain: T1 sequence (looked up) with I130N

Kd [2]: 6.1 µM
B5: Nrd1 CID K21D (domain or fragment)
chain: T1 sequence (looked up) with K21D

Kd [2]: 63.4 µM
B6: Nrd1 CID R28D (domain or fragment)
chain: T1 sequence (looked up) with R28D

Kd [2]: 1.1 µM
B7: Nrd1 CID M126A (domain or fragment)
chain: T1 sequence (looked up) with M126A

Kd [2]: 14.1 µM
B8: Nrd1 CID I130K (domain or fragment)
chain: T1 sequence (looked up) with I130K

Kd [2]: 1.3 µM
B9: Nrd1 CID R133G (domain or fragment)
chain: T1 sequence (looked up) with R133G

Kd [2]: 13.4 µM
B10: Nrd1 CID L20D (domain or fragment)
chain: T1 sequence (looked up) with L20D

Kd [2]: 1.2 µM
B11: Nrd1 CID R133D (domain or fragment)
chain: T1 sequence (looked up) with R133D

Kd [4]: 0.9 µM
B12: Nrd1 CID (domain or fragment)
chain: T1 sequence (looked up)

binding result (Nrd1 CID S25D): binds | Kd (Nrd1 CID [5]): 1.2 ± 0.02 µM
B13: Sen1 NIM peptide, FAM-labelled (peptide, UniProt Q00416 2052-2063, looked up)
peptide: {FAM}-DDDEDDYTPSIS
notes: The text prints D2052-D2053-D2054-E2055-D2056-D2057, Y2058, T2059, P2060, S2061 and I2062; source: synthetic peptide
